Key:
S. aureus Xen29 = assay: S. aureus luminescence antibacterial assay, effect of pH; format: cell-based
Description: (§1) To assess the effect of pH on the antibacterial activity of lysozyme and lactoferrin, we used a luminescence assay of bacterial viability that has been described previously ^15. The bacteria used were S. aureus Xen29 (Caliper LifeSciences Bioware™, Hopkinton, Mass.) and E. coli DH5a (GIBCO BRL, Life Technologies, Grand Island, N.Y.) expressing a luminescence plasmid pCGLS1. E. coli were grown in Luria-Bertani medium containing ampicillin (100 μg/ml, to maintain the plasmid) at 30° C. with shaking. For S. aureus, kanamycin 10 μg/ml was used instead of ampicillin. Log phase bacteria were centrifuged and resuspended in 1% Tryptic Soy Broth medium with 10 mM HEPES titrated to pH values from 6.8-8.0. E. coli (5×10^6 CFU) or S. aureus (5×10^5 CFU) were incubated with the indicated concentrations of lysozyme or lactoferrin in 96-well plates (Optiplate-96, Perkin Elmer, Waltham, Mass.) in a total volume of 120 μl. Controls were the same conditions in the same plates, but without lysozyme or lactoferrin. After incubation at 30° C. for the indicated times, luminescence was measured with a luminometer (Spectra Max L, Molecular Devices, Sunnyvale, Calif.) and was reported as relative light units (RLU). A previous study^16 determined that reductions in luminescence have an excellent correlation with a decrease in CFU.

[1] = test system: E. coli DH5a expressing luminescence plasmid pCGLS1; assay: E. coli luminescence antibacterial assay, effect of pH; format: cell-based; details: pH values from 6.8-8.0 (FIG. 8)
Description: as §1

Molecule | relative luminescence compared to control (S. aureus Xen29; pH 6.8, 1.25 mg/ml lysozyme, 30 minutes) | relative luminescence compared to control (S. aureus Xen29; pH 7.2, 1.25 mg/ml lysozyme, 30 minutes) | relative luminescence compared to control (S. aureus Xen29; pH 7.6, 1.25 mg/ml lysozyme, 30 minutes) | relative luminescence compared to control (S. aureus Xen29; pH 8.0, 1.25 mg/ml lysozyme, 30 minutes) | effect of pH on E. coli killing [1] | relative luminescence compared to control (S. aureus Xen29; pH 6.8, 4 mg/ml lactoferrin, 60 minutes) | relative luminescence compared to control (S. aureus Xen29; pH 7.2, 4 mg/ml lactoferrin, 60 minutes) | relative luminescence compared to control (S. aureus Xen29; pH 7.6, 4 mg/ml lactoferrin, 60 minutes) | relative luminescence compared to control (S. aureus Xen29; pH 8.0, 4 mg/ml lactoferrin, 60 minutes)
lysozyme (protein, UniProt P61626 19-148, looked up, endogenous ASL antimicrobial protein, tested at 1.25 mg/ml) Lysozyme C: KVFERCELARTLKRLGMDGYRGISLANWMCLAKWESGYNTRATNYNAGDRSTDYGIFQINSRYWCNDGKTPGAVNACHLSCSALLQDNIADAVACAKRVVRDPQGIRAWVAWRNRCQNRDVRQYVQGCGV | 49.1 ± 3.4 | 43.5 ± 1.5 | 30.6 ± 2.3 | 23.4 ± 0.8 | increasing pH increased S. aureus and E. coli killing | – | – | – | –
lactoferrin (protein, UniProt P02788 20-710, looked up, endogenous ASL antimicrobial protein, tested at 4 mg/ml) Lactotransferrin: GRRRSVQWCAVSQPEATKCFQWQRNMRKVRGPPVSCIKRDSPIQCIQAIAENRADAVTLDGGFIYEAGLAPYKLRPVAAEVYGTERQPRTHYYAVAVVKKGGSFQLNELQGLKSCHTGLRRTAGWNVPIGTLRPFLNWTGPPEPIEAAVARFFSASCVPGADKGQFPNLCRLCAGTGENKCAFSSQEPYFSYSGAFKCLRDGAGDVAFIRESTVFEDLSDEAERDEYELLCPDNTRKPVDKFKDCHLARVPSHAVVARSVNGKEDAIWNLLRQAQEKFGKDKSPKFQLFGSPSGQKDLLFKDSAIGFSRVPPRIDSGLYLGSGYFTAIQNLRKSEEEVAARRARVVWCAVGEQELRKCNQWSGLSEGSVTCSSASTTEDCIALVLKGEADAMSLDGGYVYTAGKCGLVPVLAENYKSQQSSDPDPNCVDRPVEGYLAVAVVRRSDTSLTWNSVKGKKSCHTAVDRTAGWNIPMGLLFNQTGSCKFDEYFSQSCAPGSDPRSNLCALCIGDEQGENKCVPNSNERYYGYTGAFRCLAENAGDVAFVKDVTVLQNTDGNNNEAWAKDLKLADFALLCLDGKRKPVTEARSCHLAMAPNHAVVSRMDKVERLKQVLLHQQAKFGRNGSDCPDKFCLFQSETKNLLFNDNTECLARLHGKTTYEKYLGPQYVAGITNLKKCSTSPLLEACEFLRK | – | – | – | – | increasing pH increased S. aureus and E. coli killing | 85.0 ± 9.3 | 73.6 ± 8.2 | 60.8 ± 4.8 | 39.8 ± 5.0

Reference: patent US20130316022A1, “METHOD TO ENHANCE ANTIMICROBIAL ACTIVITY BY INCREASING pH” (University of Iowa Research Foundation, priority 2012, published 2013)
